Measurements published in patent US20050043221A1 (BROWN UNIVERSITY, published 2005).

B2: recombinant decorin core polypeptide (no side chains), vaccinia system (other, UniProt P07585 31-359, looked up, not shown: small tags and cut ends)
chain: DEASGIGPEVPDDRDFEPSLGPVCPFRCQCHLRVVQCSDLGLDKVPKDLPPDTTLLDLQNNKITEIKDGDFKNLKNLHALILVNNKISKVSPGAFTPLVKLERLYLSKNQLKELPEKMPKTLQELRAHENEITKVRKVTFNGLNQMIVIELGTNPLKSSGIENGAFQGMKKLSYIRIADTNITSIPQGLPPSLTELHLDGNKISRVDAASLKGLNNLAKLGLSFNSISAVDNGSLANTPHLRELHLDNNKLTRVPGGLAEHKYIQVVYLHNNNISVVGSSDFCPPGHNTKKASYSGVSLFSNPVQYWEIQPSTFRCVYVRSAIQLGNYK
B3: recombinant decorin proteoglycan (core and side chains), vaccinia system (other, UniProt P07585 31-359, looked up, not shown: small tags and cut ends)
chain: DEASGIGPEVPDDRDFEPSLGPVCPFRCQCHLRVVQCSDLGLDKVPKDLPPDTTLLDLQNNKITEIKDGDFKNLKNLHALILVNNKISKVSPGAFTPLVKLERLYLSKNQLKELPEKMPKTLQELRAHENEITKVRKVTFNGLNQMIVIELGTNPLKSSGIENGAFQGMKKLSYIRIADTNITSIPQGLPPSLTELHLDGNKISRVDAASLKGLNNLAKLGLSFNSISAVDNGSLANTPHLRELHLDNNKLTRVPGGLAEHKYIQVVYLHNNNISVVGSSDFCPPGHNTKKASYSGVSLFSNPVQYWEIQPSTFRCVYVRSAIQLGNYK
modifications: glycosaminoglycan side chain
notes: also called DEC-PG; DECPG

Experiments:
[1] = target: T1, recombinant human biglycan core polypeptide (no side chains), His-tagged, vaccinia system (human, UniProt P21810 38-368); assay: blot overlay with 35S in vitro translated sarcoglycan
T1 construct: GAG attachment sites present but not substituted; also called BGN; core biglycan; not shown: N-terminal cassette His6-[Glu-Ser]-factor Xa site-[Leu-Glu]
T1 sequence: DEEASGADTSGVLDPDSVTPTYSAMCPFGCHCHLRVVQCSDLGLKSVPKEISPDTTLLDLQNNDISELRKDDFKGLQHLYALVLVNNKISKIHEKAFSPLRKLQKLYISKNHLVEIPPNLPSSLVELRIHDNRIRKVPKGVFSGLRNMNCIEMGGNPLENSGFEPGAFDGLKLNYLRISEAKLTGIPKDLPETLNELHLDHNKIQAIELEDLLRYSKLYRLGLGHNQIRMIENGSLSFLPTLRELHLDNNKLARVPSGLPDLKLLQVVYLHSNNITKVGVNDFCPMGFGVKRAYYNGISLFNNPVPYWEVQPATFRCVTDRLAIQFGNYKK

[2] = target: B3; assay: as above
[3] = target: B2; assay: as above
[4] = target: T2, α-sarcoglycan, 35S-methionine-labelled, in vitro translated (human, UniProt Q16586 1-387, limits assumed); assay: as above
T2 construct: also called alpha-sarcoglycan
T2 sequence (looked up): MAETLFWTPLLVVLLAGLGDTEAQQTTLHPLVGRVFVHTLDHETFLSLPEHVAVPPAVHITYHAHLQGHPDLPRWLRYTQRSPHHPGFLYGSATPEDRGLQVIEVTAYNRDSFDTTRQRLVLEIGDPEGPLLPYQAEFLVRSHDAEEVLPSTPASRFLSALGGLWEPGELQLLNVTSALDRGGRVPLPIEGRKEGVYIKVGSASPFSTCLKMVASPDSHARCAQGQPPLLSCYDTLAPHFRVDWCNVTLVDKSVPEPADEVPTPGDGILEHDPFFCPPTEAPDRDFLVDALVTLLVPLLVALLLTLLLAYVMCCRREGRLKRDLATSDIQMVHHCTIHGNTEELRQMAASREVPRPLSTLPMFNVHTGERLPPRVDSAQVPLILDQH

[5] = target: B2; assay: blot overlay
[6] = target: T1, recombinant human biglycan core …; assay: co-immunoprecipitation in solution with anti-biglycan or anti-poly-His, protein G beads

B1: γ-sarcoglycan, 35S-methionine-labelled, in vitro translated (other, human, UniProt Q13326 1-291, looked up)
chain: MVREQYTTATEGICIERPENQYVYKIGIYGWRKRCLYLFVLLLLIILVVNLALTIWILKVMWFSPAGMGHLCVTKDGLRLEGESEFLFPLYAKEIHSRVDSSLLLQSTQNVTVNARNSEGEVTGRLKVGPKMVEVQNQQFQINSNDGKPLFTVDEKEVVVGTDKLRVTGPEGALFEHSVETPLVRADPFQDLRLESPTRSLSMDAPRGVHIQAHAGKIEALSQMDILFHSSDGMLVLDAETVCLPKLVQGTWGPSGSSQSLYEICVCPDGKLYLSVAGVSTTCQEHNHICL
notes: also called gamma sarcoglycan
B1: binds [1]; no binding [2]; no binding [3].

B2: no binding [4].

B3: no binding [4].

B4: β-sarcoglycan, 35S-methionine-labelled, in vitro translated (other, human, UniProt Q16585 1-318, looked up)
chain: MAAAAAAAAEQQSSNGPVKKSMREKAVERRSVNKEHNSNFKAGYIPIDEDRLHKTGLRGRKGNLAICVIILLFILAVINLIITLVIWAVIRIGPNGCDSMEFHESGLLRFKQVSDMGVIHPLYKSTVGGRRNENLVITGNNQPIVFQQGTTKLSVENNKTSITSDIGMQFFDPRTQNILFSTDYETHEFHLPSGVKSLNVQKASTERITSNATSDLNIKVDGRAIVRGNEGVFIMGKTIEFHMGGNMELKAENSIILNGSVMVSTTRLPSSSSGDQLGSGDWVRYKLCMCADGTLFKVQVTSQNMGCQISDNPCGNTH
notes: also called beta-sarcoglycan
B4: no binding [5]; no binding [6].
